Substrate in series [1]: O=C1N[C@@H]2C=C[C@H]1C2
The experiment in a line: purified protein. The note with it: 50 mM Tris-HCl pH 7.5, 25 °C, substrate 5 to 200 mM.

Substrate in series [2]: O=C1N[C@H]2C=C[C@@H]1C2
The experiment in a line: purified protein. Particulars: 50 mM Tris-HCl pH 7.5, 25 °C, substrate 5 to 200 mM.

B1: MhIHL (Mh33H4-5540) (Microbacterium hydrocarbonoxydans) (protein)
chain: MAAPRRTVVLAIDLQAGVTPGCFDEEGVLSRAAALVERARAGGVPVVWVHHDPVGVGTPEWELAAPLHRAEGEPLVRKNYRDSFADTTLRETLDELGATHLVITGAQSDFCVRTTMQRAAAEGYDVTLVSDAHTTVDTEWEGVRISGEQIVAHTNMYFSGLRYPGQEFVIATHDHVAL
As to B1, in the series “purified protein [1]”, the Km stood at 12.9 mM, the kcat came to 203 s⁻¹ and the kcat/Km came to 15800 M⁻¹ s⁻¹. In addition, in “purified protein [2]”, the Km was determined as 34.2 mM, the kcat was determined as 19.8 s⁻¹ and the kcat/Km amounted to 580 M⁻¹ s⁻¹.

In general, Km refers to the concentration of substrate that gives half-maximal velocity. One may read the kcat as the maximal rate divided by the concentration of active sites. The term kcat/Km denotes the second-order rate constant that governs catalysis at low substrate concentration.

These data come from PMC5353710, “Structural insights into the γ-lactamase activity and substrate enantioselectivity of an isochorismatase-like hydrolase from Microbacterium hydrocarbonoxydans” (Scientific Reports, 2017).
